Assay results published in patent US20140357845A1 (published 2014).

How the values were obtained:
[1] = molecular target: H3-mini2-cl9 + 10 + 11-tri (influenza A virus H3N2); assay: FACS
[2] = molecular target: H3-mini2-cl9 + 10 + 11-GCN4 (influenza A virus H3N2); assay: FACS
H3-mini2-cl9 + 13 = H3-mini2-cl9 + 13 (influenza A virus H3N2, UniProt Q38SQ8 18-566); assay: FACS
[3] = molecular target: H3-mini2-cl9 + 10 + 11 + 13 (influenza A virus H3N2, UniProt Q38SQ8 18-566); assay: FACS
[4] = molecular target: H3-mini2-cl9 + 10 + 11 + 13-GCN4 (influenza A virus H3N2); assay: FACS
[5] = molecular target: H3-mini2-cl9 + 10 + 11 + 13-tri (influenza A virus H3N2); assay: FACS
[6] = molecular target: HA of influenza virus A/Brisbane/10/2007 (H3) (influenza A virus H3); assay: cell-based or functional assay
[7] = molecular target: HA of influenza virus A/WF/MPA 892/06 (H4) (influenza A virus H4); assay: cell-based or functional assay
[8] = molecular target: HA of influenza virus A/Chick/Germany/N/49 (H10) (influenza A virus H10); assay: cell-based or functional assay
[9] = molecular target: HA of influenza virus A/Env/MPU3156/05 (H2) (influenza A virus H2); assay: cell-based or functional assay
[10] = molecular target: HA of influenza virus A/EW/MPF461/07 (H5) (influenza A virus H5); assay: cell-based or functional assay
[11] = molecular target: HA of influenza virus A/EW/MPD411/07 (H6) (influenza A virus H6); assay: cell-based or functional assay
[12] = molecular target: HA of influenza virus A/EW/MPH571/08 (H8) (influenza A virus H8); assay: cell-based or functional assay
[13] = molecular target: HA of influenza virus A/Hong Kong/1073/99 (H9) (influenza A virus H9); assay: cell-based or functional assay
[14] = molecular target: HA of influenza virus A/Ck/HK/SSP176/09 (H9) (influenza A virus H9); assay: cell-based or functional assay
[15] = molecular target: HA of influenza virus A/Johannesburg/33/94 (H3) (influenza A virus H3); assay: cell-based or functional assay
[16] = molecular target: HA of influenza virus A/Panama/2007/1999 (H3) (influenza A virus H3); assay: cell-based or functional assay
[17] = molecular target: HA of influenza virus A/Hiroshima/52/2005 (H3) (influenza A virus H3); assay: cell-based or functional assay

B1: CR9114 (antibody, V domains shown)
VH: QVQLVQSGAEVKKPGSSVKVSCKSSGGTSNNYAISWVRQAPGQGLDWMGGISPIFGSTAYAQKFQGRVTISADIFSNTAYMELNSLTSEDTAVYFCARHGNYYYYSGMDVWGQGTTVTVSS
VL: SYVLTQPPAVSGTPGQRVTISCSGSDSNIGRRSVNWYQQFPGTAPKLLIYSNDQRPSVVPDRFSGSKSGTSASLAISGLQSEDEAEYYCAAWDDSLKGAVFGGGTQLTVL
binding result [1]: no binding (tested: 5 microgram/ml) | binding result [2]: no binding (tested: 5 microgram/ml) | binding result (H3-mini2-cl9 + 13): no binding (tested: 5 microgram/ml) | binding result [3]: no binding (tested: 5 microgram/ml) | binding result [4]: no binding (tested: 5 microgram/ml) | binding result [5]: no binding (tested: 5 microgram/ml) | geomean IC50, virus neutralization assay (VNA) [6]: 5.6 µg/mL | geomean IC50, virus neutralization assay (VNA) [7]: 0.8 µg/mL | geomean IC50, virus neutralization assay (VNA) [8]: 15.7 µg/mL | geomean IC50, virus neutralization assay (VNA) [9]: 8.8 µg/mL | geomean IC50, virus neutralization assay (VNA) [10]: 10.5 µg/mL | geomean IC50, virus neutralization assay (VNA) [11]: 10.5 µg/mL | geomean IC50, virus neutralization assay (VNA) [12]: 8.8 µg/mL | geomean IC50, virus neutralization assay (VNA) [13]: 4.4 µg/mL | geomean IC50, virus neutralization assay (VNA) [14]: 6.3 µg/mL | geomean IC50, virus neutralization assay (VNA) [15]: 21.9 µg/mL | geomean IC50, virus neutralization assay (VNA) [16]: 39.9 µg/mL | geomean IC50, virus neutralization assay (VNA) [17]: 12.5 µg/mL
